Literature values in patent US20160282364A1, “ASSAY FOR INSULIN-DEGRADING ENZYME (IDE) INHIBITORS” (PRESIDENT AND FELLOWS OF HARVARD COLLEGE, priority 2013, published 2016).

System: IDE

B1: insulin-like peptide 3 (protein, UniProt P51460 21-55; P51460 106-131, looked up)
Insulin-like 3 B chain: LGPAPTPEMREKLCGHHFVRALVRVCGGPRWSTEA
Insulin-like 3 A chain: AAATNPARYCCLSGCTQQDLLTLCPY
modifications: Insulin-like 3
notes: IDE substrate in vitro
Q: Which Km (IDE substrate) does the source give for B1 here?
A: 0.055 µM

Q: What about the kcat (IDE substrate) of the same molecule?
A: 0.0025 s⁻¹

Q: What about the Degradation (degradation kinetics compared to insulin) of the same molecule?
A: Fast
